Measurements from patent US20210315969A1, “GLYCOPROTEINS HAVING LIPID MOBILIZING PROPERTIES AND THERAPEUTIC USES THEREOF” (Aston University, priority 2008, published 2021).
Marks after values point to notes of the source that are not given here.

How the values were obtained:
[1] = 21 day study of ZAG in ob/ob mice; assay type: in vivo
Method: FIG. 7A is a graphical diagram showing weight loss of the ob/ob mice during the 21 day study. ZAG was injected at days 1, 4, 5, 8, 13, 16, 18, and 19; PBS was injected at the same time points.
Animals—Mice—Homozygous obese (ob/ob) mice from the colony maintained at Aston University were used in the present study. The origin and characteristics of Aston ob/ob mice have been previously described. Male mice (20-21 weeks old, weight 90-100 g) were grouped into three per cage in an air conditioned room at 22 ±2° C. with a 12 h-light:12 h-dark cycle and fed a rat and mouse breeding diet (Special Diet Services, Witham, UK) and tap water ad libitum. They were administered ZAG (35 μg) in PBS (100 μl) b.d. by i.v. administration and body weight and food and water intake were monitored daily. Control mice received PBS alone. Body temperature was measured daily by the use of a rectal thermometer (RS Components, Northants, UK). All animal experiments were carried out in accordance with the U.K. Animals (Scientific Procedures) Act 1986.
(§1) Serum Metabolite Determinations—Non-esterified fatty acids (NEFA) were determined using a Wako-ASC-ACOD kit (Wako Chemical GmbH, Neuss, Germany). Triglycerides were determined using a Triglyceride kit (Sigma Chemical Co., Poole, United Kingdom) and 3-hydroxybutyrate by a quantitative enzymatic determination kit (Sigma). Glucose was measured using a glucose analyser (Beckman, Irvine, Calif.) and glycerol was determined enzymatically using the method of Wieland as described in “Methods of Enzymatic Analysis” (Ed, Bergmeyer, H. U.) Vol. 3, pp1404-1409, published by Academic Press, London (1974).

[2] = system: rat epididymal adipocytes; experiment: Lipolytic activity in rat adipocytes; assay type: cell-based; details: concentrations between 233 and 700 nM
Method: Lipolytic Activity in Rat Adipocytes—White adipocytes were prepared from finely minced epididymal adipose tissue of male Wistar rats (400 g) using collagenase digestion, as described (Beck S A, et al. Production of lipolytic and proteolytic factors by a murine tumor-producing cachexia in the host. Cancer Res 47:5919-5923, 1987), Lipolytic activity was determined by incubating 10^5-2×10^5 adipocytes for 2 h in 1 ml Krebs-Ringer bicarbonate buffer, pH 7.2, and the extent of lipolysis was determined by measuring the glycerol released (Wieland O. Glycerol U V method. Methods of Enzymatic Analysis, edited by Bergmeyer H U, Academic Press, London, pp 1404-1409, 1974). Spontaneous glycerol release was measured by incubating adipocytes alone. Lipolytic activity was expressed as μmol glycerol released/10^5 adipocytes/2 h.

[3] = Daily i.v. ZAG in mature male Wistar rats for 10 days (body weight, composition, plasma metabolites); assay type: in vivo
Method: Animals Rais Mature male Wistar rats (one year old from our own colony) weighing 540 ±82.5 g were housed individually and treated once daily i. v., with either ZAG in PBS (100 μl) (50 μg per 100 g body weight), or with PBS (100 μl) as a control. Both food and water intake and body weight were measured daily. Animals were given free access to food (Special Diet Services, Essex, UK) and water ad libitum. The animal experiment was carried out under the welfare conditions imposed by the British Home Office. After 10 days treatment the animals were terminated and the body composition determined. Animals were heated to 80-90° C. for 7 days until constant weight was achieved. The water content was then determined from the difference between the wet and dry weight. Lipids were extracted from the dry carcass using a sequence of chloroform:methanol (1:1), ethanolla.cetone (1:1) and diethyl ether (120 ml of each) as described by Lundholm et al (14). The solvents were evaporated and the fat weighed. The non-fat carcass mass was calculated as the difference between the initial weight of the carcass and the weight of water and fat.
as §1

[4] = system: protein expression in WAT, BAT and gastrocnemius muscle; experiment: Western blot of WAT, BAT and gastrocnemius muscle of rats treated with ZAG; assay type: in vivo, Wistar rats
Method: Samples of cytosolic protein (10 μg) were resolved on 12% sodium dodecylsuiphate polyacrylamide gel electrophoresis and the proteins were then transferred onto 0.45 μm nitrocellulose menibranes, which had been blocked with 5% N,Tarvel in ids-buffered saline, pH 7.5, at 4° C. overnight, and following four 15 min washes with 0.1% Tween in PBS, incubation with the secondary antibody was performed for 1 h at room temperature. Development was by ECL.

[5] = Insulin tolerance test in ob/ob mice administered ZAG for 3 days; assay type: in vivo
Method: An insulin tolerance test was also carried out in ob/ob mice administered. ZAG for 3 days (FIG. 23). Animals were administered two doses of insulin (10 and 20 U/kg) by i.p. injection and blood glucose was measured over the next 60 min. […] The glucose disappearance curve for 20 U/kg +PBS was almost identical to 10 U/kg +ZAG, so at this dose level ZAG is reducing the requirement for insulin by 50%, but this can be overcome by giving more insulin.

B1: Zinc-α2-glycoprotein (protein, listed as Homo sapiens)
chain: QENQDGRYSLTYIYTGLSKHVEDVPAFQALGSLNDLQFFRYNSKDRKSQPMGLWRQVEGMEDWKEDSQLQKAREDMETLKDIVEYYNDSNGSHVLQGRFGCEIENNRSSGAFWKYYYDGKDYIEFNKEIPAWVPFDPAAQITKQKWEAEPVYVQRAKAYLEEECPATLRKYLKYSKNILDRQDPPSVVVTSHQAPGEKKKLKCLAYDFYPGKIDVHWTRAGQVQEPELRGDVLHNGNGTYQSWVVVAVPPQDTAPYSCHVQHSSLAQPLVVPWEAS
notes: recombinant human Zinc-α2-glycoprotein, lipid mobilizing factor, expressed in HEK293F cells
urinary glucose excretion ([1]; first 5 days and 21 day study): progressive decrease | peak body temperature ([1]; just before maximum weight loss): 38.1 °C | Start weight ([1]; ob/ob mice, 21 day study, before treatment, in g): 93.1 ± 1.9 | BAT ([1]; ob/ob mice, Day 21 (Table 3)): 0.41 ± 0.35 g | Gastrocnemius ([1]; ob/ob mice, Day 21 (Table 3)): 0.39 ± 0.12 g | Soleus ([1]; ob/ob mice, Day 21 (Table 3)): 0.18 ± 0.07 g | glycerol release [2]: dose-related increase | Starting weight ([3]; male rats, before treatment): 530 ± 45 g | Triglycerides (plasma) ([3]; rats treated for 10 days): 1.1 ± 0.09^a mmol/l | decrease in plasma levels of non-esterified fatty acids (NEFA) ([3]; rats, 10 days): 55% | elevation in body temperature ([3]; rats, significant within 24 h of first administration): 0.4 °C | expression of glucose transporter 4 (GLUT4) in BAT, WAT and skeletal muscle ([4]; 10 days): increased expression | expression of phosphorylated forms of PKR and eIF2 α-subunit in gastrocnemius muscle ([4]; total amount did not change): significant reduction | insulin tolerance test, blood glucose response ([5]; insulin 10 U/kg i.p., vs PBS): increased sensitivity to insulin | insulin tolerance test, difference ZAG versus PBS ([5]; insulin 20 U/kg i.p.): difference disappeared
